In patent publication US20050053918A1, “Method of identifying peptides capable of binding to MHC molecules, peptides identified thereby and their uses” (priority 2001, published 2005):

How the values were obtained:
[1] = test system: EL4-HHD cells loaded with the synthetic peptides; experiment: Cytotoxic T lymphocytes assay after immunization of HHD transgenic mice; format: in vivo; conditions: compared to negative control peptide ALLCAPSLL; effector-to-target ratio 50:1 shown
Text: Cells were loaded separately with individual peptides, washed and injected in four groups: 1-p1028 (SEQ ID NO:13) alone, 2-p1258 (SEQ ID NO:24) alone, 3—pool of peptides: p913 (SEQ ID NO:5), p958 (SEQ ID NO:9), p989 of CD59 (SEQ ID NO:11) and p989 of FLI (SEQ ID NO:12), 4—peptides p1031 (SEQ ID NO:14), p1121 (SEQ ID NO:22) and p1068 (SEQ ID NO:16). Unloaded EL4-HHD or targets cells not loaded with the peptides were used as negative controls. An effector-to-target ratio of 50:1 is shown.
Transgenic mice expressing a single chain HLA-A2.1/Db-β2m which are double knockout for H-2 Db and for β2m (HHD mice) were immunized four times intra-peritoneally at 7-day interval with 2×10^6 irradiated (5,000 rad) RMA-S-HHD-B7.1 cells loaded for two hours at 26° C. followed by two hours at 37° C. with 100 μM of the synthetic peptides. Ten days after the last immunization the spleens were removed from the vaccinated mice. Splenocytes were re-stimulated with 100 μM of synthetic peptides for five days. Viable lymphocytes were separated by lympholyte-M (Cadarlane, Homby, Canada) and resuspended in RPMI-HEPES. Cytotoxic activity was measured as in [26] by admixing the lymphocytes at different ratios with 5×10^3 EL4-HHD cells grown in medium containing ^35S methionine and then loaded with the synthetic peptides.
To further evaluate the affinity of the peptides to the HLA-A2 and to obtain some insight into their immunogenic potential, selected peptides were tested for their ability to induce an immune response in HLA-A2 transgenic mice. It was assumed that only peptides that could be effectively presented and remain tightly bound to the cells would be capable of inducing an immune response in these mice. The same synthetic peptides that were used for the FACS analysis were used for immunization of the HHD transgenic mice, which express the human HLA-A2.1/Db-β2m single chain. To immunize the mice, the HHD culture cells were loaded with the different peptides and then injected to the HHD mice. The immune response in the mice was followed by the appearance of CTLs specific for these peptides. Some of the peptides were indeed capable of inducing an immune response, which both authenticate them as MHC bound peptides and gives an indication about their immunogenic potential.

soluble HLA-A2 = soluble HLA-A2 (Homo sapiens, UniProt P04439, D140Y/D185E/D98H/E176V/E277Q/G131W/G231S/I119V/I121R/I166T/I218V/N151K/N90K/P208A/P217A/Q86G/Q94H/R138H/R169H); experiment: Appearance of peptides recovered from soluble HLA-A2 of cancer cell lines (ESI-MS/MS); conditions: MCF-7, MDA-231, PC3, UCI-107
Text: Cell lines were co-transfected with plasmid HLA-A2/Q10^b and with phβ2m, which conferred resistance to the antibiotic G418 or transfected only with the plasmids sHLA-A2, sHLA-B7 and sHLA-Cw4 that contained the antibiotic resistance. Cells were electroporated by use of a Gene Pulser (Bio-Rad) set at […] 960 μF. Transfected cell clones were selected in G418 antibiotic and screened for those secreting sMHC to the growth medium. […] Color was developed with ABTS (Sigma) catalyzed by streptavidin peroxidase (Sigma).
Cultured cells, expressing the soluble MHC were grown to confluency in 150 mm plates. The culture medium was collected and residual cells were removed by centrifugation. […] The antibodies were coupled to NHS-activated agarose (Pharmacia) or to protein A Sepharose (Sigma) with n-methylpipelimidate (Sigma). The columns were washed with 0.5 M NaCl, 20 mM, Tris pH 8. The MHC molecules were eluted from the column with 0.1 M acetic acid at pH 3. Peptides were separated from the MHC complexes by boiling for five minutes in 10% acetic acid followed by ultra-filtration through a 3 kDa Microcon (Amincon).
The MHC bound peptides were resolved by reverse-phase HPLC on a 0.1 ID fused silica capillaries with length of about 30 cm (J&W) slurry packed with POROS 10 R2 (PerSepetive Biosystems). The capillaries were fitted with electrospray needle made from 36-gauge stainless tubing (Small Parts Inc. Miami Lakes, Fla.). A Rheodyne 9125 HPLC injector fitted with a 20 μl loop was used for loading the column. The peptides were resolved by a relatively long (90 minutes) linear gradient of 5 to 50% acetonitrile with 0.1% acetic acid, at a flow rate of about 1 μl/minute. The flow was electrosprayed directly from the HPLC column into an ion trap mass spectrometer (LCQ, Finnigan). The mass spectrometry analysis was done in the positive ion mode, using repetitively a full MS scan usually between 450 to 1500 atomic mass units (amu) followed by collision-induced decomposition (CID) of the dominant ion selected from the previous MS scan. In some cases the full MS was performed with a narrower mass range to reduce the number of detected peptides. The peptides were identified by comparing their MS and CID data to the calculated MS and CID of the proteins in the Genpept databank (www.ncbi.nlm.nih.gov/genpept) using the Sequest software (obtained from Finnigan, San Jose, Calif.). The number of times each peptide was fragmented by CID was usually limited to two by dynamic exclusion, a feature of the Xcalibur control software the LCQ mass spectrometer (Finnigan).

HLA-A2.1 = test system: T1, HLA-A2.1; experiment: Stabilization of cell surface HLA-A2.1 by peptide binding on RMA-S-HHD cells (FACS); format: cell-based, human; conditions: 100 μM peptide, 2 h 26° C. + 2 h 37° C., FACS with W6/32 mAb
T1 construct: expressed in transfected cells; host or cells: RMA-S-HHD (murine TAP-2 deficient lymphoma, C57BL/6 origin)
Experimental: Synthetic peptides were added to […] RMA-S-HHD cells to a concentration of […] followed by incubation for two hours at 26° C. and two hours at 37° C. […] The HLA-A2.1 peptide derived from gp100 served as a positive control and unloaded RMA-S-HHD cells as a negative control.
RMA-S-HHD cells were washed three times with PBS followed by incubation overnight in FCS-free IMDM medium at 26° C. Synthetic peptides were added to 10^6 cells at a concentration of 100 μM. The cells were incubated for two hours at 26° C. followed by two hours at 37° C. […] (Sigma).
Another approach to ascertain that the identified peptides were indeed MHC bound peptide antigens, their capacity to bind tightly and stabilize cell surface HLA-A2.1 was tested by reconstitution into empty MHC on the surface of RMA-S-HHD cells.

sHLA-A2 = target: T2, sHLA-A2 (human); experiment: sMHC eluate MS, UCI-101
T2 construct: also called sA2; sMHC-A2

| binding result (sHLA-A2) | Molecule | also measured |
| --- | --- | --- |
|  | FLFDGSPTYVL [from fatty acid synthase] | lysis of EL4-HHD cells loaded with the peptides by CTLs of immunized HHD mice [1]: significant lysis |
|  | SLLGGDVVSV [from TSC-22 related protein] | appearance of peptide in soluble HLA-A2 from cell lines of different tissue origin (soluble HLA-A2): detected at high level in the two-breast cancer cells (MCF-7 and MDA-231), but was not observed in the ovarian (UCI-107) and the prostate (PC3) cancer cells |
|  | SLIGHLQTL [from protein tyrosine posphatase] | appearance of peptide in soluble HLA-A2 from cell lines of different tissue origin (soluble HLA-A2): detected only in the breast cancer cell MDA-231 |
|  | GLIEKNIEL [from DNA (cytosine-5-)-methyltransferase] | lysis of EL4-HHD cells loaded with the peptides by CTLs of immunized HHD mice [1]: significant lysis |
|  | TLWVDPYEV [from BTG2] | lysis of EL4-HHD cells loaded with the peptides by CTLs of immunized HHD mice [1]: significant lysis |
|  | ALSDHHIYL [from aldolase A] | lysis of EL4-HHD cells loaded with the peptides by CTLs of immunized HHD mice [1]: significant lysis |
|  | NLTISDVSV [from MUC1] | appearance of peptide in soluble HLA-A2 from cell lines of different tissue origin (soluble HLA-A2): recovered only from MCF-7 grown without estrogen |
|  | GVYDGEEHSV [from MAGE XP-2 protein (MAGE-B2)] | appearance of peptide in soluble HLA-A2 from cell lines of different tissue origin (soluble HLA-A2): detected only in the ovarian cancer cells (UCI-107); binding affinity to MHC by reconstitution and stabilization of empty MHC on the surface of RMA-S-HHD cells (HLA-A2.1): normal |
|  | ALFGALFLA | appearance of peptide in soluble HLA-A2 from cell lines of different tissue origin (soluble HLA-A2): recovered only from PC3 cells |
| binds | SLWGQPAEA (also called p958) |  |
| binds | SLSEKTVLL (also called p989 of CD59) |  |
| binds | LLLDVPTAAVQA (also called p1210; p11210) |  |
| binds | LLDVPTAAV (also called p898) |  |
| binds | ALSDHHIYL (also called p1068) |  |
| binds | ILDKKVEKV |  |
| binds | YLLPAIVHI |  |
| binds | GLIEKNIEL (also called p1028) |  |
| binds | SLLPPTALVGL (also called p1080) |  |
| binds | SLLPPDALVGL (also called p1094) |  |
| binds | LLLDVPTAAV (also called p1011) |  |
| binds | GLYPGLIWL (also called p1031) |  |
| binds | SLFPGKLEV (also called p989 of FLI) |  |
| binds | FLFDGSPTYVL (also called p1258) |  |
| binds | GLLGTLVQL (also called p913) |  |
